No end group written: not given here. modified Toyopearl AF‑Amino‑650M resin = not defined here

This passage reports IgG yield results from patent US20130165539A1.

Experiment [1] concerns the target Human polyclonal immunoglobulin G (IgG), lyophilized, Equitech-Bio, Inc. (human). The experiment can be described thus: affinity chromatography of IgG from cMEM, yield = IgG eluted / IgG loaded; cycle 100, 99 washes with 0.1 M NaOH.
Experiment [2] has the same target. The experiment can be described thus: affinity chromatography of IgG from cMEM, yield = IgG eluted / IgG loaded; cycle 50, 49 washes with 0.5 M NaOH.
Experiment [3] shares this target. The experiment can be described thus: affinity chromatography of IgG from cMEM, yield = IgG eluted / IgG loaded; cycle 10, 9 washes with 1 M NaOH.
Experiment [4] has the same target. The experiment can be described thus: affinity chromatography of IgG from cMEM, yield = IgG eluted / IgG loaded; cycle 30, 29 washes with 1 M NaOH.
The target is the same in experiment [5]. The experiment can be described thus: affinity chromatography of IgG from cMEM, yield = IgG eluted / IgG loaded; cycle 75, 74 washes with 0.5 M NaOH.
Experiment [6] shares this target. The experiment can be described thus: affinity chromatography of IgG from cMEM, yield = IgG eluted / IgG loaded; cycle 25, 24 washes with 0.5 M NaOH.
Experiment [7] has the same target. The experiment can be described thus: affinity chromatography of IgG from cMEM, yield = IgG eluted / IgG loaded; cycle 200, 199 washes with 0.1 M NaOH.
For experiment [8] the target is unchanged. The experiment can be described thus: affinity chromatography of IgG from cMEM, yield = IgG eluted / IgG loaded; cycle 1, 0 washes with 0.1 M NaOH.
Experiment [9] has the same target. The experiment can be described thus: affinity chromatography of IgG from cMEM, yield = IgG eluted / IgG loaded; cycle 20, 19 washes with 1 M NaOH.
For experiment [10] the target is unchanged. The experiment can be described thus: affinity chromatography of IgG from cMEM, yield = IgG eluted / IgG loaded; cycle 1, 0 washes with 0.5 M NaOH.
Experiment [11] has the same target. The experiment can be described thus: affinity chromatography of IgG from cMEM, yield = IgG eluted / IgG loaded; cycle 25, 24 washes with 0.1 M NaOH.
Experiment [12] has the same target. The experiment can be described thus: affinity chromatography of IgG from cMEM, yield = IgG eluted / IgG loaded; cycle 100, 99 washes with 0.5 M NaOH.
For experiment [13] the target is unchanged. The experiment can be described thus: affinity chromatography of IgG from cMEM, yield = IgG eluted / IgG loaded; cycle 1, 0 washes with 1 M NaOH.
Experiment [14] shares this target. The experiment can be described thus: affinity chromatography of IgG from cMEM, yield = IgG eluted / IgG loaded; cycle 50, 49 washes with 0.1 M NaOH.
Experiment [15] has the same target. The experiment can be described thus: affinity chromatography of IgG from cMEM, yield = IgG eluted / IgG loaded; cycle 50, 49 washes with 1 M NaOH.
Experiment [16] shares this target. The experiment can be described thus: affinity chromatography, yield = IgG eluted / IgG loaded; cycle 2, after phosphoric acid regeneration, before any NaOH wash.
The target is the same in experiment [17]. The experiment can be described thus: affinity chromatography, yield = IgG eluted / IgG loaded; cycle 5, after three 0.1 M NaOH washes.
The target is the same in experiment [18]. The experiment can be described thus: affinity chromatography, IgG 10 mg/mL in cMEM loaded on 0.1 mL column, eluted with 0.2 M acetate pH 4; yield = IgG eluted / IgG loaded (Protein G HPLC); cycle 1, before any NaOH wash.
Experiment [19] shares this target. The experiment can be described thus: affinity chromatography, yield = IgG eluted / IgG loaded; cycle 3, after the first 0.1 M NaOH wash (ligand partly leached).
For experiment [20] the target is unchanged. The experiment can be described thus: affinity chromatography, yield = IgG eluted / IgG loaded; cycle 4, after two 0.1 M NaOH washes.

Consider HWRGWVA-{modified Toyopearl AF‑Amino‑650M resin} (reading uncertain) [HWRGWV (SEQ ID NO: 1) synthesized on modified Toyopearl AF-Amino-650M resin (density 0.11 meq/g)], for which the IgG yield was determined as 87% in experiment [1]; 85% in [2]; 84% in [3]; 79% in experiment [4]; 82% in [5]; 87% in experiment [6]. Moreover, the IgG yield was 85% in [7]; 91% in [8]; 82% in experiment [9]; 89% in experiment [10]; 90% in [11]; 80% in experiment [12]. Also, the IgG yield turned out to be 88% in [13], 88% in [14] and 76% in experiment [15].
HWRGWV-{Toyopearl AF‑Amino‑650M resin} (also: coupled partly by amide, partly by ester bonds): the IgG yield in [16] was 85%; in experiment [17], 21%; in experiment [18] it was 85%; in experiment [19] it was 23%; in [20] it was 21%.
